In the nanobody polyreactivity screen of Harvey et al. (2022):

Test: yeast display, Sf9 membrane polyspecificity reagent, FACS + sequencing; frameworks hold sequencing errors
Method in brief: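 A synthetic nanobody library was expressed on Saccharomyces cerevisiae BJ5465 by galactose induction for 36–48 hours. The library was stained for 1 hour at 4 °C with 10% biotinylated, detergent-solubilized Sf9 membrane reagent and enriched with streptavidin microbeads before FACS. Low and high (top ~1%) gates were set on anti-HA fluorescence for expression and streptavidin fluorescence for reagent binding, and each polyreactivity label reflects the gate of origin.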

Row | Sequence | polyreactivity (PSR sort gate)
1 | QVQLVESGGCLVQAGGSLRLSSAASGSTFRVNAMGWYRQAPGKERELVAAISFSGGSTYYADSVKGRFTISRDNAKNTVYLQMNSLKPEDTAVYYCNVDIYLGGDYYYSRYTWGLDYWGQGTQVTVSS | low polyreactivity
2 | QVQLVESGGCLVQAGGSLSLSCAASGFTFTYYDMGWYRQAPGKERELVAAITRRGGRTYYADSVKGRFTISRDNAKNTVYLQMNSLKPEDTAVYYCNADEYGGSTGRKGRYNYWGQGTQVTVSS | low polyreactivity
3 | QVQLVESGGCLVQAGGSPRLSCAASGSILTLYAMGWYRQAPGKERELVAAITSGERTNYADSVKGRFTISRDNAKNTVYLQMNSLKPEDTAVYYCATKRWWGRYDYWGQGTQVTVSS | high polyreactivity
4 | QVQLVESGGCLVQAGGTLRLSCAASGRIFVSYVMGWYSQAPGKEREFVAAIRRSGSSTYYADSVKGRFTISRDNEKNTVYLQMNSLKPEDTAVFYCAAYQRSRTLRRYDYWGQGTEVTVSS | high polyreactivity
5 | QVQLVESGGCLVQARGSLRLSCASSGRMISYNAMGWYRQRPGKDMELGAAINSSGGSTYDADSVKGRFTISRDNAKNTVSLQMNSLKAEDTAFYYCNVLHIPSTTMDYWPQGTQVTVSS | high polyreactivity
6 | QVQLVESGGDLVQAGGSLRLSCAASGSIFCYYVMGWYRQAPGKERELVAAITVSGAGTYNADSVKGRFTISRDNAKNTVYLQMNSLKPEDTAVYYCAARWLGHFYPFFLQGLSGFDYWGQGTQVTVSS | low polyreactivity
7 | QVQLVESGGGFDQAGGSLRLSCAASGITFYDNVMGSYIQAPGKERELVAAITSGGSTNYSDSVKGRFTISRANAKNTVYLQMNSLKPEDTAVYYCAATPYGIGYDYWGQGTEVTVSS | low polyreactivity
8 | QVQLVESGGGFGQAGGSLRLSCAASGFTCGYYAMGWFRQAPGKERELVASISSRGGSTNYADSVKGRFTISRDHAKNTVYLQMNTMKPEDTAVYYCAAEYYRQRYEYDYWRQGTQVTVSS | high polyreactivity
9 | QVQLVESGGGFVQAGGSHRLSCAASGRIFSCNAMGWYRQAPGKERELVAAITWRGTSTYYADSVKGRFTISRDNAKNTVYLQMNSLKPEDTAVYYWNGDYYYPADGRHYHYDYWGQGTQVTVSS | low polyreactivity
10 | QVQLVESGGGFVQAGGSLRFSCAAYGSTFNQYAMGWYRQAPGKEREFVASITFSGGRTYYADSVQGRFTLSRDNEQNTVYLQMNSLKTEDPAVSYCNAVGYTPRKPSKFDYRGQGTQVTVSS | low polyreactivity
11 | QVQLVESGGGFVQAGGSLRLICAASGRIFGYYAMAWYRQAPGQERELVAAINWGGGITYYADSVKGRFTISRDNAKNTVYLQMNSLKPEDTAVYYCATDYKLVYSIYDYWGQGTQVTVSS | low polyreactivity
12 | QVQLVESGGGFVQAGGSLRLSCAASGFTFRKYARGWYRQAPGNERELVAVINIVGSTYYADSVKGRFTISRDNAKNTVYLQMNSLKPEDTAVYYCAADWSYRLKYYWYGGFNYWGQGTQVTVSS | high polyreactivity
13 | QVQLVESGGGFVQAGGSLRLSCAASGFTFWRYTMGWYRQAPGKERELVAAINWSGGRTYYADSVKARFTISRDNAKNTVYLQMNSLTPEDTAVYYCATGYSTSVGGSQGDSWGQGTQVTVSS | high polyreactivity
14 | QVQLVESGGGFVQAGGSLRLSCAASGIIFDYNAMGWYRQAHGKERELVAAISGRSGRTYYADSVKGRFTISRDNAKNTVYLQMNSLKPEDTAVYYCAARWYAGGNYWGQGTQVTVSS | high polyreactivity
15 | QVQLVESGGGFVQAGGSLRLSCAASGLIFSWYDMGWYRQAPGKERELVAAITTDGDDTYYADSVKGRFTISRDNAKNTVYLQMNSLKPEDTAVYYCAADSELAIRYPDRDYDSWGQGTQVTVSS | low polyreactivity
16 | QVQLVESGGGFVQAGGSLRLSCAASGLTFYGNVMGWYRQAPGKERELVAAITRRGTSTYYADSVKGRFTLSRDYAKNTVYLQMNRLKPEDTAFYYCAAGTAYSRFGYWGQGTQVTVSS | high polyreactivity
17 | QVQLVESGGGFVQAGGSLRLSCAASGRIFLTNAMGWYRQAPGKERELVAAITSGGSTYYADSVKGRFTISRDNAKNTVYLQMNSLKPEDPAVYYCNADTDRYSPYEYDFWGQGTQVTVSS | low polyreactivity
18 | QVQLVESGGGFVQAGGSLRLSCAASGRIFPGYAKGWYRQAPGKERELVAAISASGGSTYYADSVKGRFTISRDNAKNTVYLQMNSLKPEDTAVYYCNAVYRRYEYWGQGTQVTVSS | high polyreactivity
19 | QVQLVESGGGFVQAGGSLRLSCAASGRIFPWNTMGWYRQATGNERELVAGITSGGSTNYADSVKGRFTISRDNAKNTVYLQMNSLKPEDTAVYNCAARGYYWYISGVYEYEYWGQGTQVTVSS | low polyreactivity
20 | QVQLVESGGGFVQAGGSLRLSCAASGRIFYNYAMGWYRQAPGKERELVAAMSGSGGSTYYADSVKGRFTISRDNAKNTVYLQMNSLKPEDTAVYYCSTSGPQYYSRNVDYWGQGTQVTVSS | low polyreactivity
21 | QVQLVESGGGFVQAGGSLRLSCAASGSIFWLYDMGWYRQAAGKVRELVAAISWSTGGTYYADSVKGRFTISRENAKNTVYLQMNSLKPEDTAVYYCNAETYDQYNYWGQGTQVTVSS | low polyreactivity
22 | QVQLVESGGGFVQAGGSLRLSCAASGSILSGYAMGWYRPAPGKERELVAAITSGGDTNYADSVKGRFTISRDNAKNTVYLQMNSLKPEDTAVYYCNRRGDFRIAYYDPMDYWGQGTQVTVSS | low polyreactivity

Row | Sequence | polyreactivity (PSR sort gate)
23 | QVQLVESGGGFVQAGGSLRLSCAASGSTFGYYVMGWYRQAPGKERELVAAISASGGSTYYADSVKGRFTISRDNAKHTVYLQMNSLKPEDTAVYYCAAGGYYVRYDYWGQGTQVTVSS | high polyreactivity
24 | QVQLVESGGGFVQAGGSLRLSCAASGSTFRFYAMGWYRQAPGKERELVAAINGSGGSTYYADSVKGRFTISRDNAKNTVYLQMNSLKPEDTAVYYCAAESNTGPGEDYWGQGTQVTVSS | low polyreactivity
25 | QVQLVESGGGFVQAGGSLRLSCAASGYTLRIYAMGWYRQAPGKERELVAAISRSGGRTFYADSVKGRFTISRDNAKNTVYLQMNSLKPEDSAVYYCAAVPRSYDTGRMDYWGQGTQVTVSS | high polyreactivity
26 | QVQLVESGGGFVQAGGSLRLSCASSGRIFRGYTMGWYRQAPGKEREFVAAIRRSGGTTYYADSVKRRFTISRDNAKNTVYLQMNSLKPEDTAVYYCAAGYPGFTYQRRKYDYWGQGTQVTVSS | high polyreactivity
27 | QVQLVESGGGFVQAGGSLRVSCAASGSIFGSYAMGWYRQAPGKERELVADISSGGSTNYADSVKGRFTISRDNAKNTVYLQMNSLKPEDTAVYYCNADDPAGYLYWWGSWLESDYWGQGTQGTVSS | low polyreactivity
28 | QVQLVESGGGFVQAGRSLRLSCAASGSTFYIYAMGWSRQAPGKEREMVADISRGDSTNYADSVKGRFTISRDNAKNPVYLQLNSLKPEDTAVYYCNAAFRGERDWFSGRRYKFDYWGQGTQVTVSS | low polyreactivity
29 | QVQLVESGGGIVHAGGSLRLSCAASGSTIDVYDMGWYRQAPGKERELVAAITTSGGGTYYADSVKGRFTISRDNAKNTVYLQMNRLKPEDTAVYYCAADTWRDGDDYWGQGTQVTVSS | low polyreactivity
30 | QVQLVESGGGIVQAGCSLRFSCAASGGTFGYYTLGWYRQAPGKERQLVAAISSGGGTDYADSVKGRFTISRDNAKNTVSLQMNSLKAEDTAVYYCNAQWLEWHYVFLPSYTMDYWGLGTQVTVSS | low polyreactivity
31 | QVQLVESGGGIVQAGCSLRLSCAASGRIFGYYSMGWYRQAPGKDTELVAAISNGGSTHYADSVKGRFTISRDNAKNTVYLHMNSLKPEDSAVYYCAARWHYGYYAYYYWGQGTQVTVSS | high polyreactivity
32 | QVQLVESGGGIVQAGGCLRLSFAASGFSFAKNAMGSYRQAPGKERELVAAIRSGGSTKYADSVNGRFTISRDNAKNTVYLQMNSLKPEDTAVYYCNARSTWSRTRPAYDYWGQGTQVTVSS | high polyreactivity
33 | QVQLVESGGGIVQAGGRLRLSCAASGRIFDDNSMGWYRKAPGKETELVATISSSGVSTSYADSVKGRFTISRDNAKNTVYFQMNSLNPEYTAVYFCNAGYRLRYKFDYWGQGTQVTVAS | low polyreactivity
34 | QVQLVESGGGIVQAGGSHRLICAASGFTYIRYAMGWYRQAPGKERELVASISNRGGRTYYADSVKGRFTNSRDNAKNTVYLQMNSLKPEDTAVYYCAAGYSYYSWGQGTQVTVSS | high polyreactivity
35 | QVQLVESGGGIVQAGGSLPLICAASGFTFDWYALGWYRQAPGKERELVAAITTSGGTTYYADSVKGRFTMSRDNAKITVYLQMNSLKPEDTAVFYCAADADTDVFYILQEYDYWGQGTQVTVSS | low polyreactivity
36 | QVQLVESGGGIVQAGGSLPLSCAASGIIFSVNAMGWYRQAPGKERELVAAITYSGGSTYYADSVKGRYTISRDNAKNTVYLQMNSLKPEVTAVYYCAAETYSSGEWYDYWGQGTQVTVSS | high polyreactivity
37 | QVQLVESGGGIVQAGGSLRLICAASGFIFVTYAMGWYRQAPGKETELVAAITNSGGTTYYADSVKGRFTISRDNAKNTVYLQMNSLKPEDTAVYYCAADVWTPYLISLKSGYDYWGQGTQVTVSS | low polyreactivity
38 | QVQLVESGGGIVQAGGSLRLICAASGFTFGYYTMGWYRQAPGKEREFVAAISGSGTNTYYADSVKGRFTISRDYAKNTVYLQMNSLKPEYTAVYYCNARWSLVSSGFDGGYWGQGSQVTVSS | high polyreactivity
39 | QVQLVESGGGIVQAGGSLRLICAASGSNFNRYAMGWYRQAPGKERQLVARITNRSGNTYYADSVKGRFTISRDIAKNTVYLQMTSLKPEDTAVYYCAATKSLGRYIMEYWGLGTQVTVSS | low polyreactivity
40 | QVQLVESGGGIVQAGGSLRLICDASGLIFTLYAMGWYRQAPGKETELVAAIDDGGRTYYADSVKGRFTISRDNAKNTVYLQMNSMIPEDTAVYYGAAVWLAVYSVWTDHHYDYWGQGTQVTVSS | low polyreactivity
41 | QVQLVESGGGIVQAGGSLRLISAASGFIFAIYAMGWYRQAPGNERELVAGISSSGSTTRYADSVKVRFTISRDYAKYTVYLQLISLIPEDTAVYDCAADGYPGDDYWGQGTQVTVSS | high polyreactivity
42 | QVQLVESGGGIVQAGGSLRLSCAASGFIFNTNAMGWYRQAPGKERELVAGISRSGVRTYYADSVKGRFTISRDNAKNTVYLQMNSLKPEDTAVYYCAATSLPRYYYWGQGTQVTVSS | low polyreactivity
43 | QVQLVESGGGIVQAGGSLRLSCAASGFIFRYYVMGSYRQAPGKERELVASISRSGTSTYYADSVKGRFTISRDNAKNTVYLQMNSLKPEDTAVYYCAKGVGRGFGSATGYYWGQGTQVTVSS | high polyreactivity
